Source: US20230192903A1 (published 2023)

B1: bispecific antibody Y7 (bispecific antibody, human IgG1, kappa)
light: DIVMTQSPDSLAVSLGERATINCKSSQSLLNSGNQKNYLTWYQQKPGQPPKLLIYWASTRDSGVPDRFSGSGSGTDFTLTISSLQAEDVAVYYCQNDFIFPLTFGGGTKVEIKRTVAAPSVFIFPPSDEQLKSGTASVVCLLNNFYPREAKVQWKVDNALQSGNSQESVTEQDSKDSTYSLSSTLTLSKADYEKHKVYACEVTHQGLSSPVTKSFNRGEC
heavy: QVQLQESGPGLVKPSETLSLTCTVSGFSLTRYGVSWIRQPPGKGLEWIGVIWGEGNTNYNPSLKSRVTISKDSSKSQVSLKLSSVTAADTAVYYCARVNFGNALDYWGQGTLVTVSSASTKGPSVFPLAPSSKSTSGGTAALGCLVKDYFPEPVTVSWNSGALTSGVHTFPAVLQSSGLYSLSSVVTVPSSSLGTQTYICNVNHKPSNTKVDKKVEPKSCDKTHTCPPCPAPPVAGPSVFLFPPKPKDTLMISRTPEVTCVVVDVSHEAPEVQFNWYVDGVEVHNAKTKPREEQFNSTFRVVSVLTVVHQDWLNGKEYKCKVSNKGLPAPIEKTISKTKGQPREPQVYTLPPCRDELTKNQVSLWCLVKGFYPSDIAVEWESNGQPENNYKTTPPVLDSDGSFFLYSKLTVDKSRWQQGNVFSCSVMHEALHNHYTQKSLSLSPGK
chain: QVQLVESGGGVVQPGRSLRLSCAASGFTFSTYAMNWVRQAPGKGLEWVGRIRSKYNNYATYYADSVKDRFTISRDDSKNTLYLQMNSLRGEDTAVYYCARHGNFGNSYVSWFAYWGQGTLVTVSSGGGGSGGGGSGGGGSQTVVTQEPSLTVSPGGTVTLTCRSSTGAVTTSNYANWVQQKPGQAPRGLIGGTNKRAPGVPARFSGSLLGGKAALTLSGVQPEDEAEYTCALWYSNLWVFGGGTKVEIKGRGRGSDKTHTCPPCPAPPVAGPSVFLFPPKPKDTLMISRTPEVTCVVVDVSHEAPEVQFNWYVDGVEVHNAKTKPREEQFNSTFRVVSVLTVVHQDWLNGKEYKCKVSNKGLPAPIEKTISKTKGQPREPQVCTLPPSRDELTKNQVSLSCAVKGFYPSDIAVEWESNGQPENNYKTTPPVLDSDGSFFLVSKLTVDKSRWQQGNVFSCSVMHEALHNHYTQKSLSLSPGK
notes: YBODY structure: anti-CLDN18.2 Fab arm (2C6.9) and second monomer anti-CD3 scFv (Di6-2)-Fc
B2: bispecific antibody CS4 (bispecific antibody, human IgG1, kappa)
light: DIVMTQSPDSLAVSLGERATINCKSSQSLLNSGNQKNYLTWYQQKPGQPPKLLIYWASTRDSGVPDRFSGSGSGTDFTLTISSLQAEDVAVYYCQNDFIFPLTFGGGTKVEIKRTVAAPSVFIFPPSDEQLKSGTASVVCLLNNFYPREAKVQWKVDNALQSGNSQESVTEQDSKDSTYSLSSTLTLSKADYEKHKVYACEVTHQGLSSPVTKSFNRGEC
heavy 1: B1 heavy
heavy 2: QVQLQESGPGLVKPSETLSLTCTVSGFSLTRYGVSWIRQPPGKGLEWIGVIWGEGNTNYNPSLKSRVTISKDSSKSQVSLKLSSVTAADTAVYYCARVNFGNALDYWGQGTLVTVSSASTKGPSVFPLAPSSKSTSGGTAALGCLVKDYFPEPVTVSWNSGALTSGVHTFPAVLQSSGLYSLSSVVTVPSSSLGTQTYICNVNHKPSNTKVDKKVEPKSCDKTHTAPAPAPAPAPAPAPAPQVQLVESGGGVVQPGRSLRLSCAASGFTFSTYAMNWVRQAPGKGLEWVARIRSKYNNYATYYADSVKDRFTISRDDSKNTLYLQMNSLRAEDTAVYYCARHGNFGNSYVSWFAYWGQGTLVTVSSGGGGSGGGGSGGGGSQTVVTQEPSLTVSPGGTVTLTCRSSTGAVTTSNYANWVQQKPGQAPRGLIGGTNKRAPGVPARFSGSLLGGKAALTLSGVQPEDEAEYYCALWYSNLWVFGGGTKVEIKGGGGSDKTHTCPPCPAPPVAGPSVFLFPPKPKDTLMISRTPEVTCVVVDVSHEAPEVQFNWYVDGVEVHNAKTKPREEQFNSTFRVVSVLTVVHQDWLNGKEYKCKVSNKGLPAPIEKTISKTKGQPREPQVCTLPPSRDELTKNQVSLSCAVKGFYPSDIAVEWESNGQPENNYKTTPPVLDSDGSFFLVSKLTVDKSRWQQGNVFSCSVMHEALHNHYTQKSLSLSPGK
notes: CSBODY structure: two 2C6.9 Fab arms; second heavy chain (first heavy entry) and first heavy chain with anti-CD3 scFv (2a5) between CH1 and Fc2

Tests used:
[1] = biological target: T1, human CD3 antigen (human, UniProt P07766 23-126); assay: SPR (Biacore T200), human CD3 antigen amine-coupled on CM5 chip, 1:1 fit
T1 construct: also called Human CD3ϵ
Protocol: After the detection was completed, data fitting was carried out on the result pattern by adopting Biacore T200 Evaluation Software in a 1:1 binding fitting mode to obtain an equilibrium dissociation constant (KD).

[2] = biological target: T2, Human CLDN18.2 (human); assay: flow cytometry, NUGC4-hCLDN18.2 cells
T2 construct: the cell line is named under assay; also called hCLDN18.2; human CLDN18.2 antigen
Protocol: (§1) NUGC4 and NUGC4-hCLDN18.2 cells were cultured, digested with pancreatin and centrifuged to collect cells. The cells were collected and resuspended in buffer (PBS+1% FBS) at 1×10⁴ cells/well in a 96-well plate at 100 μL per well. Then the mixture was centrifuged at 350×g for 5 min, and the supernatant was removed.

[3] = biological target: T2, Human CLDN18.2; assay: flow cytometry, NUGC4 cells (endogenous CLDN18.2)
Protocol: as §1

[4] = biological target: T2, Human CLDN18.2; assay: cell-based or functional assay
[5] = biological target: T2, Human CLDN18.2; assay: cell-based or functional assay; remark: listed apart in the source

Row | Binder | Kd [1] [nM] | EC50 [2] [nM] | EC50 [3] [nM] | Induction of expression of CD25 EC50 (pM), NUGC4 [4] [pM] | Induction of expression of CD25 EC50 (pM), NUGC4-hCLDN18.2 [4] [pM] | Induction of expression of CD69 EC50 (pM), NUGC4 [4] [pM] | Induction of expression of CD69 EC50 (pM), NUGC4-hCLDN18.2 [4] [pM] | EC50 (pM), in vitro killing by hPBMC, NUGC4-hCLDN18.2 cells [5] [pM] | EC50 (pM), in vitro killing by hPBMC, NUGC4 cells [5] [pM]
1 | B1 | 4.86 | 25.4 | 127 | 15.7 | 1.78 | 4.13 | 0.465 | 0.655 | 5.83
2 | B2 | 12 | 18.9 | 23.4 | 2.38 | 1.19 | 0.446 | 0.196 | 0.306 | 0.94
